Results taken from the nanobody polyreactivity screen of Harvey et al. (2022).

Experiment: yeast display, Sf9 membrane polyspecificity reagent, FACS + sequencing; frameworks hold sequencing errors
Procedure, shortened: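 In a synthetic yeast display library (Saccharomyces cerevisiae BJ5465), nanobody expression was induced with galactose for 36–48 hours. FACS gates were set low and high (top ~1%) using anti-HA fluorescence for expression and streptavidin fluorescence for binding of the Sf9 membrane reagent. Each polyreactivity label is drawn from the gate of origin.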

## QVQLVESGGGLVQAGGSLRLSCAASGSTFGHYAMGWYRQAPGKERELVAAITWSGGSTYYADSVKGRFTISRDNAKNTVYLQMNSLKPEDTAVYYCNAVTRRSAQVGHDYWGQGTQVTVSS
  polyreactivity (PSR sort gate): high polyreactivity

## QVQLVESGGGLVQAGGSLRLSCAASGRIFASYVMGWYRQAPGKERELVAAISYGGSRTYYADSVKGRFTISRDNAKNTVYLQMNSLKPEDTAVYYCNARSKFYYHYWMDYWGQGTQVTVSS
  polyreactivity (PSR sort gate): high polyreactivity

## QVQLVESGGGLVQAGGSLRLSCAASGSTFSYYAMGWYRQAPVKERELVAAITSGGGRTYYADSVKGRFTISRDNAKNTVYLQMNSLKPEDTAVYYCNALSTLYNGYDYWGQGTQVTVSS
  polyreactivity (PSR sort gate): high polyreactivity

## QFQLVESGGGLVQAGGSLRLSCAASGSTFYANAMGLYRQAPGKERELVAAISYSGGSTYYADSVKGRFTISRDNAKNTVYLQMNSLKPEDTAVYYCAATNGKKTPKVYYWGQGTQVTVSS
  polyreactivity (PSR sort gate): low polyreactivity

## QVQLVESGGGLVQAGGSLRLSCAASGRTFGYYAMGWYRQAPGKERELVAAISRSGGSTYYADSVKGRFTISGDNAKNTVYLQMNSLKPEDTAVYYCAVKGYVKSDYWGQGTQVTVSS
  polyreactivity (PSR sort gate): high polyreactivity

## QVQLVESGGGLVQAGGSLRLSCAATGSTFAVYSMGWYRQAPGKELELVATIRRNGGSTYYADSVKGRFTISRDNAKNTVYLQMNSLQPEDTAVYYCAARSRKRWGYNYWGQGTQVTVSA
  polyreactivity (PSR sort gate): high polyreactivity

## QVQLVESGGGLVQAGGSLRLSCAASGRIFFSTVMGWDRQAPGKERELVAAISWSGGSTYYADSVKGRFTISRDNAKNTVYLQMNSLKPEDTAVYYCNRLSASVQYGYWGQGTQVTVSS
  polyreactivity (PSR sort gate): high polyreactivity

## QVQLVESGGGLVQAGGSLRLSCAASGRIFYYNAMGWYRPAPGKERELVAAINYRGGSTYYADSVKGRFTISRDNAKNTVYFQMNSLKPEDTAVYDCAARYWKDGSTYDYWGQGTQVTVSS
  polyreactivity (PSR sort gate): high polyreactivity

## QVQLVESGGGLVQAGGSLRLSCAASGRTFYYYAMGWYRQAPGKERELVAVIRSSGDSTYYADSVKGRFTISRDNAKNTVYLQMNSLKPEDTAVYYCNADDWAYGMDYWGQGTQVTVSS
  polyreactivity (PSR sort gate): low polyreactivity

## QVQLVESGGGLVQAGGSLRLSCAASGSTFYENTMGWYRQAPGKERELVAAISFRGGSTYYADSVKGRFTISRDNAKNTVYLQMNSLKPEETAVYYCAKEYYTVRLYDYWGQGTQVTVSS
  polyreactivity (PSR sort gate): low polyreactivity

## QVQLVESGGGLVQAGGSLRLSCAASGITFYYYAKGWYRQAPGKEREFVAAINWSGTSTYYADSVKGRFTISRDNAKNTVYLQMNSLKPEDTAVYYCNAERGRSFWWAYDYWGQGTQVTVSS
  polyreactivity (PSR sort gate): low polyreactivity

## QVQLVESGGGLVQAGGSLRLSCAASGRIFQYNAMGWYRQAPGKEREFVAAIRRGGGSTYYADSVKGRFTISRDNAKNTVYLQMNSLKPEDTAVYYCAARRKRVSFYPEYDYWGQGTQVTVSS
  polyreactivity (PSR sort gate): low polyreactivity

## QVQLVESGGGLVQAGGSLRLSCAASGLIFYKYAMGWYRQAPGNERELVAAISRGDNTYYADSVKGRFTISRDNAKNTVYLQMNSLKPEDTALYYCAAYRWIYQSQYQGYWLDYWGQGTQVTVSS
  polyreactivity (PSR sort gate): high polyreactivity

## QVQLVESGGGLVQAGGSLRLSCAASGNTFYGYAMGWYRQAPGKERELVASITLSGDSTYYADSVKGRFTISRDNAKNTVYLQMNSLKPADTAVYYCAGVYTYPLGYYHYTYDYWGQGTQVTVSS
  polyreactivity (PSR sort gate): low polyreactivity

## QVQLVESGGGLVQAGGSLRLSCAASGITFFRNAMGWYRQAPGKERELVAGISTTGGRTYYADSVKGRFTISRDKAKNTVYLQMNSLKPEDTAVYYCNTLVPRAGREYDYWGQGTQVTVSS
  polyreactivity (PSR sort gate): high polyreactivity

## QVQLVESGGGLVQAGGSIRLSCAASGSTFYSYAMGWYRQATGKERELVAAISSGGSTNYADSVKGRFTISRDNAKNTVYLQMNSLKPEDTAVYYCAVDYPVIVYQRGYWGQGTQVTVSS
  polyreactivity (PSR sort gate): low polyreactivity

## QVQLVESGGGLVQAGGSLRLSCAASGFTFVPYAMGWYRQAPGKEREFVATISWSAGRTYYADSVKGRFTISRDNAKNTVYLQMNSLKPEDTAVYYCNARQWCQRYSKVRYDFWGQGTQVTVSS
  polyreactivity (PSR sort gate): high polyreactivity

## RVQLPESGGGLVQAGGSLRLTCAASGTIFIRGDMGWYRQSPGKEREFVATIDTGSNTYYADSEKGRFTISRDNAKNAVYLQMNCLKPGDTAVYYCVVDYQLSGRLRYWGQGTQVTLSS
  polyreactivity (PSR sort gate): low polyreactivity

## QVQLVDSGGGLVQAGGSLRLSSPASGIIFTRYTMGCYSQEPGKERELVAAITTSGGRTYYADSVKGRFTISRDNAKNTVYLPMNSLKPEDTAVYYCDVSGHARYDYWGQGTQVTVSS
  polyreactivity (PSR sort gate): high polyreactivity

## QVQLVESGGGLVQAGGSLRLSCAASGRIYASYVMGWYRQAPGKERELVAAISYGGSRTYYADSVKGRFTISRDNAKNTVYLQMNSLKPEDTAVYYCAAKKYTNRGYYYWGQGTQVTVSS
  polyreactivity (PSR sort gate): high polyreactivity

## QVQLVESAGGLVQAGGSLRLMCAASGNTLSWYALGWYRQAPGKERELVAVITSGGSTNYADSVKGRFTISRDYAKNTVYLQMNSLKPEDTAVYYCNRRPYGFDEFDYWGQGTQVTVSS
  polyreactivity (PSR sort gate): low polyreactivity

## QVQLVESGGGLVQAGGSLRLSCAASGSIFYEYTMGWYRQAPGKERELVAVITSGGTTNYADSVKGRFTISRDNAKNTVYLQMNSLKPEYTAVYYCAAESKNKYDYWGQGTQVTVSS
  polyreactivity (PSR sort gate): high polyreactivity

## HVQLEESGGGLDQAGGSLRLSCAASGITFVRNAMGWYRQAPGKERELVAVITSGGGTYYADSVKGRFTISRDNAKNTVYLQMNSLKPEDTAVYYWAGDIHVNGSGYWGKGTQVTVSS
  polyreactivity (PSR sort gate): low polyreactivity

## QVQLVESGGGLVQAGGSLRLSCAASGRIVGLYAKGWYRQAPGKERELVATITRRAGSTYYADSVKGRFTISRDYAKNTVYLLMNSLKPEDTAVYYCAASALRFNSRFSHWYNYWGQGTQVTVSS
  polyreactivity (PSR sort gate): high polyreactivity

## QVQLVESGGGLVQAGGSLRLSCAASGRIFNLYVMGWYRQAPGKERELVATISSGGSTNYADSVKGRFTISRDNAKNTVYLQMNSLKPEDTAVYYCAAREWRSFDYWGQGTQVTVSS
  polyreactivity (PSR sort gate): low polyreactivity

## QVQLVESGGGLVQAGGSLRLSCAASGSTFGAYAMGWSRQAPGKERELVAAISKRGGSTYYADSVKGRFTISRDNAKNTVYLQMNSLKPEDTAVYYCATDHFSPTYGYWGQGTQVTVSS
  polyreactivity (PSR sort gate): low polyreactivity

## QVQLVESGGGLVQAGGSLRLSCAASGIIFVRYAMGWYIQAPGKERELVAAINSRGNTYYADSVKGRFTISRDNAKNSVYLQMNSLKPEDTAVYYCAKYNSWGQGTQVTVSS
  polyreactivity (PSR sort gate): high polyreactivity

## QVQLVESGGGLVQAGGSLRLSCAASGRTFFRYAMGWYRPAPGKERELVAAITRSGGSTYYADSVKGRFTISRDNAKNTVYLLMNSLKPEDTAVYYCAAPREAYSRGYDSWGQGTQVTVSS
  polyreactivity (PSR sort gate): high polyreactivity

## QVQLVESGGGLVQAGGSLRLSCAASGITFAYYAMGWYRQAPGKERELVAGISKSGGRTYYADSVKGRFTISRDNAKNTVYVQLNSLKPEYTAVYYCASQDARRIVYDRYYYWGQGTQVTVSS
  polyreactivity (PSR sort gate): high polyreactivity

## QVQLEESGGGLVQAGGSLRLSCSAYGFTFSRYDMGWYRQAPGKERELVAAISWSGGSTYYADSVKGRFTISRDNAKNSVYLQMNSLKPEDTAVYYCAKPGWSVTGESWGQGTQVTVSA
  polyreactivity (PSR sort gate): high polyreactivity

## QVQLVESGGGLVQAGGSLRLSCAASGSIFGRNAMGWYRQAPGKERELVARISSRGGSTYYADSVKGRFTISRDNAKNTVYLQLISLKREDTALYYCAAEGGDRYALYTFYTWGQGTQVTVSS
  polyreactivity (PSR sort gate): high polyreactivity

## QVHLVESGGGLVQAGGSLRLSCAASGGTFGYYAMGWYRPAPGKERELVAAINARGDSTYYADSVKGRFTISRDNAKNTVYFLMNSLKPEDTAVYYCNTGIALFGYKYHYWGQGTQVTVSS
  polyreactivity (PSR sort gate): low polyreactivity
